Earlier results, collected in paper PMC8145179.

Target: Cys215 (UniProt position 215, PVVVHCSAGIG)
Conditions: apo (ligand-free) enzyme

Protein tyrosine phosphatase 1B (PTP1B) (Homo sapiens (inferred; not stated in the article))
pKa: 5.4
